Test results as given in a protein production outcome set (Wang et al. 2014).

Experiment: label from the status in PepcDB records

Sequence: MNQHLSISPSVSRPVWHQAIPLLLLEAALVLTWSSGFIGARFSLDYAPPLLVVFWRCVVVTLLLLPFVARQLVTLPPTLLLKNTGIGLLAMTGYVAGVTQGIALGVPAGLAALFADLLPMGMALLAALVLGQRLVWQIWAGLVVGLIGVVLVTHSALEWGNAPLWAYGLPLLGMFSLAIATLWQKHSTTSQPMKLLPNLWLQYFISSFAFAIIQGTQGGLAPIASSGFALSVAWTVGLATLGGYGLYWVCLRRAKATRVASVLYLSPPVTMLWAWAMFDEPLSWQIALGMVVSGVGVWMVIRAEARQVAS
- protein production: failed

Sequence: MIVKEDSVEAVGAQLKVYHQQYQDKSREYDQLYEEYTRTSQELQMKRTAIEAFNETIKIFEEQGQTQEKCSKEYLERFRREGNEKEMQRILLNSERLKSRIAEIHESRTKLEQQLRAQASDNREIDKRMNSLKPDLMQLRKIRDQYLVWLTQKGARQKKINEWLGIKNETEDQYALMEDLEHHHHHH
- protein production: failed

Sequence: KPKDIKYVVEESKFKDLREILEFMLKDAVQKLDMFLDMLNYSKPKVDVGDEVIEIKKDNVIEALKLFKDEYEVSKKHIPVPVYTYLIKRNILFLNPIEGILKPQSYLVWNAIKRLL
- protein production: failed

Sequence: MSDKRNPRISSRKQPQQARSSELVASILEAAVQVLASEGAQRFTTARVAERAGVSIGSLYQYFPNKAAILFRLQSDEWRRTTRLLGEILEDTTRPPLERLRRLVLAFVRSECEEAAIRVALSDAAPLYRDADEAREVKAEGARVFQAFLREALPEVAEAERSLAGDLLTTTLGAVGKQFSEQPRSEAEIERYAEALADMLCAYLAALGER
- protein production: not failed

Sequence: MGRISSGGMMFKAITTVAALVIATSAMAQDDLTISSLAKGETTKAAFNQMVQGHKLPAWVMKGGTYTPAQTVTLGDETYQVMSACKPHDCGSQRIAVMWSEKSNQMTGLFSTIDEKTSQEKLTWLNVNDALSIDGKTVLFAALTGSLENHPDGFNFK
- protein production: not failed

Sequence: MPMDFQILDADYEVVNDSGPVIRLFGRGADGKSVCCFVPDFEPYFYLKASGDLHAVARLIKDTFEQVKKVEIVEKFEPVGYQKTKKEMLRVTTRLPKDVPEIRDEILKIRDVLRAEGDWQVYESDILFRNRFLIDRALGGMVWVSAEGKPVDPVRYLGAGSAWRSRCENFACDSAVLASGLKRVENLAIAPLKYLAFDIECLPLDGGMPSPDVSPIIMISFSFEPEYKGHKTLILLAKPAAGMDGDVLSCMDETEMLNKFFEIICEYDPDIVAGYNHQDFDIPYITERVKALVAKGETINSVVGRDGSPIGYRKFGLITRTEMKGRVVVDALPLVRRAFSLKQYTLRAVSKELLSREKLDVPPLEMEEHWNDSGDKFRKFVDYARRDSELALELVLELRLLDKYIALAQVSGSLLQEIVDGGQTSMVETLLLREFGLKDRVILPKPGDELSAERYDMSSDLKGGEVLEPKKGLLENVLILDYKSLYPTIMMAHNLCYTTVVTRDRPDGKTIKPPSGGEFVPPEVFRGIVPSILEDLLNKRGDTKKRMKRTSDENEHRVLDATQLAIKILLNSFYGYSGYARARLYSLTLANAVTSFGRSNILNTRDLINGRIGKIVLRNSAALLLEEAGKLSPQDRIVELSVAYGDTDSVFVHCKAKGDLSLEEVSLVGNRLSEIVSASLPDPMELEFESVAKRALLIAKKRYALWLFEPRNSGWENKIKVKGMETVRRDWCELTSITLNRVLEFVLIEGDVDKAVEHVRKVVSDVRNLDPGKDAGIIEKLVLTRTLTRKADSYKNKQPHLTVAENLKKRTGIMPSIGTRIPFVITAGKGLFVDRAEDPDYVRENNVPIDVDYYVKKQILPPVERILEVFGVKMSSLDFDAKQKGLFDFEVKKPEAKKQEKSSSQKGTNGKILEKAPEEKARYSENGRVEQRSLFDF
- protein production: failed

Sequence: MLVFEIIIGLLLAGAALTALSRRIGTPYPALVALAGAALALVPGTPTLVLEPDLALTLFVAPVLLDAAYDASQRDLRASWRTVAGLAVGAVALTVVVVAVVARALVPGMPWAVAVALGAIVAPPDAAAATAVLGQLRPPHRLMVILEGESLFNDASALLVYRLAVGAALAGALSPVEVLPPLLASTAGSVALGYGLSRVIPPLIARIEDVPIAVVVQFCGTFAVWIVAERLHLSGILTVVVFAMASAQRAAGQMAARVRIPSYAVWGFAVFVLNVLAFILVGFQLKAILGRIDAPTLLRYAGVAGAVCLAAVVARIAWVSGTAAVSRLRCRPTEDGSKARPDTIGLSPRGAAVVGWCGMRGIVTLAAALALPTGARGAPPFPHRDLVVFTAFAVVLGTLVLQGMTLRPLMRALRLEGDRSVDREVRLARVETLRAGLSATDGAAGDPLSDVLRRRYELLLRGAEAELRGGAAPQAPPAGGDVDPRAGAAVARRAVEAERGRLLALRSDGTIGDAAFQRVEEELDLEELSLRRLARDGAREAS
- protein production: failed

Sequence: MDIQGLLERLKPFIIIVLLFSVVFYIRAEASNIGGVPADAKKFYEDADGLPYFSEMDSYYNYRLTMNYLTKGIMGDTLVDGKPYDLHSYYPPGRPVDYPPLIVYVTSAAYRVLNFFGDFSLKEVAFWMGAFIGSLCVIPAYLFVRRITNDYGGFAAALIVGLVPTYVAHTYAGFFDTDMFNFVLPLFVFWFFTEGMLASSMRGKVGYALAAAVSILVFSAAWVGYIFYLAVLIVFVAAYLVISRYILGEKPAGEFEGKLDWLIHQRELFPLLILIIAGGVLVGVFGGFSSLAGAVGGLIGATQIQATAQTTAYPNVYVSVSELQVPEFITTGAGNIFLPGQNTIVGGVGGLLVFIIGVLGVGALVWKYRQPEVVVEESENRPRAGKKSKFMRKKRAAVASEEMRHRYLLYAVLMAVWLIMSGYAVTKGSRFIPTFAMPLGLSAGIFTGFLVEYLRVRFTTTSSLALIVFVAAVAMVMPFGVSVAVKLLAGVLAAGFIYSVKKPEIRAPFMMVLVVLAAVAPSVSGAHSITTSVAPGTDDGMWNSMQWVKKNTSRDTVVMSWWDFGHLFAVAADRPVTFDGGSQNTPRAYWIGKALTTSNETLSRGILTMLSTSGDLAYETLDNYTDDSGKTAEILTATLGLPREEARAVMTGRYGLSDKEADSVLRYSHPAKPKPFVLVLSSDMLGKAPWWTYFGTWDFKKKTGSRYGYYPSLASSKPQVVNNTTVIQTVNTMVDQNNVLGTIIEKKANTTNATIAVGNNMTVQKINPHRLTIIEGDLLVKNEVVDSDAQLSLIVIGSGNQYTTIIMNRELEDSVFTKLFLLGGFNQTSFKFLHQEPGVLLWTAA
- protein production: failed

Sequence: MGKKTENLKIDAKKSFLKRIAKNVKVSEGERAVEDILRCIYRNQPISTKKIGQYVKLPLPIVSKVRSILERESLLKRDDKGAVLSKKGIDFVENELGLKLKSDMKCPVCSGRNIVFDEKFEKILKKHKTYAKLRPQVNTMIDQSFATPETATARAAIMADRGDLEGKRVLFVGDDDLASIPTAMTGLCSEVVVLDIDDRLLKLISEVSKKENLNIRTVKWDFKNELPSEFVNKFDTIFTDPPYTLNGAVLFMSRGIEALGDNGILYLAFSHKPVEEYIELQKSINNMNFLIYELIPGFNFYEGTEIIGNTTFLARLVGKNLKKIEVNSEKIYTGELKPTLRYYQCMNCKKIHEVGNKVKRIEDLTCECGGKK
- protein production: failed

Sequence: LDYQRLYGTRCFSCDQFIEGEVVSALGKTYHPDCFVCAVCRLPFPPGDRVTFNGKECMCQKCSLPVSV
- protein production: not failed

Sequence: MIIRIKHYGEVKIEDSKNLLLNLIENRIGIDNICNGKGTCGKCKVRFRQGVPEATSADLRYLSVEELEEGVRLACQVKPQKGMEIDVTLSNSFDRKNTVLEHHHHHH
- protein production: failed

Sequence: MKSYTKHTHTNRLASESSPYLLQHAHNPVEWFPWGEEALQKAKAEDKPILVSIGYSACHWCHVMEHECFEKEEVAAVMNDLFINIKIDREERPDLDQIYMDAVSAMGLRGGWPLNVFLTPDAKPFYGGTYFPQDHWLNLLGQISNAYLNHREDILKSAESFTESLNQSDVF
- protein production: not failed

Sequence: MKSSVVSAWDMLWRSHREAKRLLLFAMPVRAGKDAGLKINSEQTMKEEKPPSYKTPQKIGLLLGPALFFAVLLFFFPEGLSYEGRMVLATTLWVAVWWITEAVPIPAASLLPIVLLPLTGALEGAAVTSSYGDPIVFLFLGGFLIALAMERWNLHKRIALNIISVVGTSTSRIVLGFMAATGFLSMWVSNTAAVMMMLPIGTAIIHQVSAVIKSERKDLAAEEAKFSKALIFSIGYAGTIGGLGTLIGTPPNIILAANIKKLYGVEVSFGGWMAFAVPVVVILLVAVWLYLTKVAHPIKMKELPGGKELILEEKRKLGKMSFEETMVLLVFGFAAFMWVTRTFLWDDKIPGIDDTMIAIFAASLLFLIPSLNKGGRVLDWSVSKDLPWGILLLFGGGLALATGFKETGLAEWIGGRLTVLDGFNFVVIVIISTALVLFLTEITSNTATATMILPVLASLALALNVHPYALMVPAAMAANCAFMLPVGTPPNAIIFASGKLKISEMVRTGFVINIFTLILIVGAVFYILPHLWGVDLTVFPDNLKSN
- protein production: failed

Sequence: MPLKKLIEIGSADFSVSTTACVLQLSHREVPVRGKQSKVISGVLADETARLPFTAWVELPGIDIGSIIRIEGAQIRMFRGMPSINFLEHHHHHH
- protein production: failed

Sequence: WQGLSSKGDLPQVEITKAFFAKQADEVTLQQADVVLVLQQEDGWLYGERLRDGETGWFPEDFARFI
- protein production: not failed

Sequence: MLFSIVVHQMILFFSILLVGNVAAKQGVIQENYLPDLAKLVSKIFLPVLIFYMTYAGTTRQMVWENAAMIGLAALFYVVISAVTWIIAKGLRPAGDKAKVFQFAFIFGNTGFVGVPLLIALFPKDGILYLALFSIVDQLLFWTYGVYLATASDKKAKITLKSFVNPNIVAIALALIFIMIGAKLPTVIDDTLQTIKNAVGAMAMIYLGALIFYSDWKTAFKTKDLYFGIVVKMIILPILLGKLLLMTGLPNNMIWSMIILMSLPTMTVVPMIAKLYGHEGAYAAGITAATLAVSIVTIPVVVFFTT
- protein production: failed

Sequence: MENLALTTLLLPFIGALVVSFSPQRRAAEWGVLFAALTTLCMLSLISAFYQADKVAVTLTLVNVGDVALFGLVIDRVSTLILFVVVFLGLLVTIYSTGYLTDKNREHPHNGTNRYYAFLLVFIGAMAGLVLSSTLLGQLLFFEITGGCSWALISYYQSDKAQRSALKALLITHIGSLGLYLAAATLFLQTGTFALSAMSELHGDARYLVYGGILFAAWGKSAQLPMQAWLPDAMEAPTPISAYLHAASMVKVGVYIFARAIIDGGNIPHVIGGVGMVMALVTILYGFLMYLPQQDMKRLLAWSTITQLGWMFFGLSLSIFGSRLALEGSIAYIVNHAFAKSLFFLVAGALSYSCGTRLLPRLRGVLHTLPLPGVGFCVAALAITGVPPFNGFFSKFPLFAAGFALSVEYWILLPAMILLMIESVASFAWFIRWFGRVVPGKPSEAVADAAPLPGSMRLVLIVLIVMSLISSVIAATWLQ
- protein production: failed

Sequence: MSLTFSILAHDPETGAIGGAAATGSLCVGGWVLRGDLNAGMSASQGAAPSTFWGEEVLQHLRDGSHPEDAVNHVTSQDSGRAYRQLAAMDLLGNAAAFTGSENQDIKGSVTFASGIASGNMLGDNSVLGAMTEAFVASDLTFERRLLAALIAAEGAGSDFRGLLSAAMLVLHPDRPPVTLRIDYHPDNPIGALEQLYQKATTGDYADWARQVPVLSDKERILDEGHHHHHH
- protein production: not failed

Sequence: MGGIYRLSLKSTEATAERLSCDTRCNYEDRDLAYSPDGRWLAIARRFSNISEDIFIRDLASAHEKRLTQGLEDIRGLSWTPDSQALVFATEDSGSSNGFTLDINTAQIRSLDVEGMSYPSSVSAEGELVYHQYHRQFQMAYFSLGDKVPGSLFPLLYSGVSHRNPDYSPEAKRIVFVSSETGYNEIWTSDINGQKLEQLTQLKSRVAYPRWSPDGSRIAFIAPDDRNEGNRIFILDLTNKNITALASSYHNHGRPSWNWQGTAVLASTADGITEFYLDNRAPRVISSLSMAVGFAKSATELVFSRDGENGLWQINLTQPEHVEQLISTDAFRAGNNWVLTASGVYFKSSNGHEQLLNYWEASSQQVTSLLRVPRSSLSGFGSMTYIPEANRLVMTLDGFPQRDIILLKHKLLKLEHHHHHH
- protein production: failed

Sequence: MLEHLIKISRRNWSSLKVIILAGGRGKRITLFKPFLVVCGKPLISWAFDAVNKLSDKVYLGINQSHPLFTIFKHSIFKIFPTPDISYENDVKYVVESLGPPILVLPVDIAFINNNIINNLIERCAVDMCTLKSYGSYLGVTYWTGLNFSNYTDIEVKEKLYNINTWEDYIKANKECNILLEHHHHHH
- protein production: not failed
